Data: patent US20230365659A1 (EPSILON MOLECULAR ENGINEERING, published 2023)

B1: Bacillus subtilis-derived VHH-COVE4 (VHH)
VHH: AEVQLVESGGDVVQPGGSLRLSCAASGFTFTTYAMTWVRQAPGEGLEAVSTISGADGSTYYADSVKGRFTISRDNANNTVYLQMNSLKPEDTAVYYCAATPWYSASHTYWGQGTQVTVSSGGGSHHHHHH
B2: Bacillus subtilis-derived VHH-COVE1 (VHH)
VHH: AEVQLVESGGGLVQPGGSLRLSCAASGFAFSSYPMYWVRQAPGKGLEWISFIDGEGTSTSYADSVKGRFTISRDNAKNTVYLQMNSLKPEDTAVYYCNALLRRYNYGFTFDNYWGQGTQVTVSSGGGSHHHHHH
B3: VHH-COVE9-R108K (VHH)
VHH: AEVQLVESGGGLVQPGGSLRLSCAASGTIFSTNAMSWYRQAPGKQRELVAAITSGGNTNYADSVKGRFTISRDNAKNTVYLQMNSLKPEDTAVYYCNAPGVVTGSYDVKNYWGQGTQVTVSSGSHHHHHH
B4: VHH-COVE9-N109D (VHH)
VHH: AEVQLVESGGGLVQPGGSLRLSCAASGTIFSTNAMSWYRQAPGKQRELVAAITSGGNTNYADSVKGRFTISRDNAKNTVYLQMNSLKPEDTAVYYCNAPGVVTGSYDVRDYWGQGTQVTVSSGSHHHHHH
B5: VHH-COVE9-Y110S (VHH)
VHH: AEVQLVESGGGLVQPGGSLRLSCAASGTIFSTNAMSWYRQAPGKQRELVAAITSGGNTNYADSVKGRFTISRDNAKNTVYLQMNSLKPEDTAVYYCNAPGVVTGSYDVRNSWGQGTQVTVSSGSHHHHHH
B6: Bacillus subtilis-derived VHH-COVE9 (VHH)
VHH: EVQLVESGGGLVQPGGSLRLSCAASGTIFSTNAMSWYRQAPGKQRELVAAITSGGNTNYADSVKGRFTISRDNAKNTVYLQMNSLKPEDTAVYYCNAPGVVTGSYDVRNYWGQGTQVTVSS
B7: Bacillus subtilis-derived VHH-COVE8 (VHH)
VHH: EVQLVESGGGLVQPGGSLTLSCAASGQTFSSYNMAWFRQSPGKEREFVATISWGGGSTGYADSVKGRFTISRDHAKNTVYLQMKDLKPEDTGAYYCYLVGLFGIQASDYWGQGTQVTVSS
B8: Bacillus subtilis-derived VHH-COVE2 (VHH)
VHH: AEVQLVESGGGLVQAGDSLRLSCAATRRTSSTYAMGWFRQAPGKGLEWVAAISWDGGRTYYAESVKGRFTISRDNAKNTVYLQMNSLKPEDTAVYYCYSFGGSDFLMDYWGQGTQVTVSSGGGSHHHHHH
B9: Bacillus subtilis-derived VHH-COVE5 (VHH)
VHH: EVQLVESGGGLVQAGGSLRLSCTASDQIFDNYNMAWFRQSPGKEREFVAALSWGDSNTGYADSVKGRFTISRDNAKNTVYLQMNSLKPEDTAVYYCYAVTWLRGDYWGQGTQVTVSS
B10: Bacillus subtilis-derived VHH-COVE3 (VHH)
VHH: AEVQLVESGGGFVQAGGSLRLSCRVSAPTFMTYTMAWFRQAPGNEREFVAALSKNFVTTSYADSVKGRFTISRDNAKNTVYLQMNSLKPEDTAVYYCNVAWSDYEYLEVWGQGTLVTVSSGGGSHHHHHH
B11: Bacillus subtilis-derived VHH-COVE7 (VHH)
VHH: EVQLVESGGGLVQAGDSLRLSCTASGRTFSSCAMGWFRQAPGKEREFVAAISRGGGSTSYADSVKGRFTISKDRARNTAYLEMNSLKPEDTAIYYCYAVFPSGGDYWGQGTQVTVSS

target: T1, SARS-CoV-2 (2019-nCoV) spike S1-Fc recombinant protein (Sino Biological, Inc.) (SARS-CoV-2, UniProt P0DTC2 16-685); test: not given

Point of comparison: B1, Kd 0.997 nM. Against it:
- B2 — 3.6-fold higher, 3.63 nM

Point of comparison: B1, koff 0.000114 s⁻¹. Against it:
- B2 — 2.5-fold higher, 0.00028 s⁻¹

Point of comparison: B2, kon 77000 M⁻¹ s⁻¹. Against it:
- B1 — within 1.5-fold, 115000 M⁻¹ s⁻¹

target: T1, SARS-CoV-2 (2019-nCoV) spike S1-Fc …; test: not given; remark: another data set of the same source

Point of comparison: B4, Kd 8.38 nM. Against it:
- B3 — 2.6-fold lower, 3.28 nM
- B5 — 1.8-fold lower, 4.74 nM

Point of comparison: B5, koff 0.000683 s⁻¹. Against it:
- B3 — 1.6-fold lower, 0.000437 s⁻¹
- B4 — 1.6-fold higher, 0.00106 s⁻¹

Point of comparison: B3, kon 133000 M⁻¹ s⁻¹. Against it:
- B4 — within 1.5-fold, 126000 M⁻¹ s⁻¹
- B5 — within 1.5-fold, 144000 M⁻¹ s⁻¹

target: Trimeric SARS-CoV-2 spike antigen full-length (Bio-Serv) (SARS-CoV-2, UniProt P0DTC2 14-1273); test: ELISA, VHH on nickel plate, spike in solution (0-500 ng/mL)

Point of comparison: B7, “absorbance (450 nm)” value 0.97. Against it:
- B6 — the same, 0.97
- B8 — the same, 0.97
- B9 — the same, 0.97
- B10 — the same, 0.97
- B11 — the same, 0.97
